# Assay results published in the supplement of paper PMC9170038.
# Test system: MS2 coat protein
# Assay: apparent KD of MS2 coat protein; designed switch direction (-1 OFF switch, 1 ON switch): -1; higher = weaker reporter binding
# Procedure, shortened: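 SNAP-549-labelled MS2 coat protein was titrated, doubling from 0.7 or 1.5 nM to 3 µM, over designed RNA switches transcribed on Illumina chips by stalled E. coli RNA polymerase. Runs were done without input, with 200 uM small-molecule ligand, or with an oligonucleotide input. Apparent KD is the per-design median over clusters of curve-fitted normalised fluorescence.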
# [1] = input ligand: microRNA oligo, concentration not stated
# [2] = Eterna round: R95, input ligand: microRNA oligo, concentration not stated
# [3] = Eterna round: R95, input ligand: FMN 200 uM
# [4] = Eterna round: R95, input ligand: none
Sequence,apparent KD of MS2 coat protein (input ligand: FMN 200 uM) [nM],apparent KD of MS2 coat protein (input ligand: none) [nM],apparent KD of MS2 coat protein [1] [nM],apparent KD of MS2 coat protein [2] [nM],apparent KD of MS2 coat protein [3] [nM],apparent KD of MS2 coat protein [4] [nM]
"CCGGCUUAGGAGGAUAUCAGAGUCGAAAGACUCUGAGAAGGCCUAACAUGAGGAUCACCCAUGUGUCCUACCGG [Mod of Eli 7 - Jieux - Exclusion 6] (Eterna round: R97, puzzle: Exclusion 6)",81.5,25.1,–,–,–,–
"GGUGAGCGAGGAUAUACAUGAGGAUCACCCAUGUGACGCUGUCCUUGGAAGAACCUCUGUAGAAGGCGCGGAAU [Veisrien] (Eterna round: R97, puzzle: Exclusion 3)",23.5,162,–,–,–,–
"AAGAUGCGGGUAGGAUAUGGAGAGAAAGAAAGACCAGAAGGACUGGUCACACAACAUGAGGAUCACCCAUGUGUGUGUUGCGAA [EX ng 1 6] (Eterna round: R96, puzzle: Exclusion NG 1)",–,–,8.52,–,–,–
"ACAAGCUUAAAAAUCCUAAACAUGAGGAUCACCCAUGUUCGUCUUAUAAAAAUAAAAAUAAAAAACAAAAAAUAAAA [Sensor V2: 71] (Eterna round: R96, puzzle: Sensor v2, turn-off variant)",39,39.3,228,–,–,–
"UCUUUCAUUGUGAGGAUAUGCCCAAAUAAAAGCGGGCAGAAGGCACAUGAGGAUCACCCAUGUCCUGCGGUUAU [salish99_bmx4_r4_150] (Eterna round: R97, puzzle: Brourd's mod of Exclusion 4)",357,56.9,–,–,–,–
UUUUAACAUGAGGAUCACCCAUGUGAGGAUAUCGAAAUUUAUAUUAAUAUUAAUAAUUCGAGAAGGCACAUUUU [JMF 21] (puzzle: Exclusion 1),–,–,–,117,–,–
"AAAACUAACACGAAAGUGUUAGAAUAAUAAGCUUGUGGUACAUGAGGAUCACCCAUGUCCUCAUAAGCUCGUCUUAU [Mat - Sensor v3 - Turn-off var 2 - D45] (puzzle: Sensor v3, turn-off variant 2)",–,–,–,46.4,28,25.8
"GGGCUGCGACGCAGCCCAACAAAACAUGAGGAUCACCCAUGUCAGGAUAUACCGAUGCAGCAUCUGUAGAAGGGACAGAUCCAA [Tiraonin] (Eterna round: R96, puzzle: Exclusion NG 3)",–,–,61.9,–,–,–
AAUGCGAGUGUUAGGAUAUACAAGGAUCCAUAUUUGUAGAAGGAACAUGAGGAUCACCCAUGUAAGGGAAUAAA [Enususxebe] (puzzle: Brourd's mod of Exclusion 4),–,–,–,59.5,166,65.7
UUUUUGUGAGGAUAUCAGUAGUAGAACAAUAGUACUACUACUGAGAAGGCACAUGAGGAUCACCCAUGUUCUUC [Fiskers Ex 4 Super stable 44 mod 11] (puzzle: Exclusion 4),–,–,–,27.1,–,–
CUUUUGUGAGGAUAUCUGUAGUAAAAAAAUAAAAUUACUACUGAGAAGGCACAUGAGGAUCACCCAUGUUCCUC [salish99_ex4_r3_035] (puzzle: Exclusion 4),–,–,–,34,–,–
GAUAGAGAGCAGGAUAUCUUAGAUAUGUAAUAUAGAGAAGGGCUCACAUGAGGAUCACCCAUGUGGUCCUAGAU [JL Dibiri mod 14] (puzzle: Exclusion 6),–,–,–,15.9,94,16.1
"AGGUGCUUCUGGAGACAUGAGGAUCACCCAUGUUGAGUUAGCGAGGAUAUCGGUAACCAUUGUUAUGAGAAGGCGCAAACCAGA [Ex NG3 #40] (Eterna round: R96, puzzle: Exclusion NG 3)",22.9,27.8,10.5,–,–,–
"GCUGGAAAAGGAUAUACAUAACGUGCGUCGGCACGAGAUCUACAUGAGGAUCACCCAUGUAGAAGGUUUCCAGC [EX2 #73] (Eterna round: R97, puzzle: Exclusion 2)",33.4,14.3,–,–,–,–
"GUGUAAUGUGAGGAUAUGUGUUUCGUUAGCUGCACAGAAGGCACAACAUGAGGAUCACCCAUGUGGGCAGGGCC [Eternabot (L1) Solution 10] (Eterna round: R97, puzzle: Exclusion 6)",59.4,19,–,–,–,–
"AUGUUACUCUGAGGAUAUUGUUUAUUCUUCUCACAUGAGGAUCACCCAUGUUUCCAUGUUAACCGCAAGAAGGCAGUUUUGUUU [JR_ExcNG2_Sub029] (Eterna round: R96, puzzle: Exclusion NG 2)",46.1,36.3,24.5,–,–,–
"UUAGGCUCUGGUUCGUAUUACAUGAGGAUCACCCAUGUGGCCAAGUGAGUUGGGCCGGUCAUGAUUUUGCUCGUUAU [Eternabot (L2) Solution 13] (Eterna round: R97, puzzle: Sensor, turn-off variant 1)",48.3,59.4,–,–,–,–
GAAAAGGUAGGAUAUACGAAAAAAAAGGGUAGAAAAAAAACACAUGAGGAUCACCCAUGUAGAAGGACCAAAGG [salish99_ex2_r3_040] (puzzle: Exclusion 2),–,–,–,28.5,46.3,26
